Experimental findings from US20240093191A1, “COMPOSITIONS AND METHODS FOR TREATING DISEASE ASSOCIATED WITH DUX4 OVEREXPRESSION” (RESEARCH INSTITUTE AT NATIONWIDE CHILDREN'S HOSPITAL, priority 2021, published 2024) are described below.

The test system of one series is mi405 mature sequence. Briefly: QPCR of mature mi405 (standard TaqMan cDNA synthesis) in HEK293 cells. It is filed as cell-based, human. The settings on record: 24 h after transfection; for reduction of mature mi405 sequence expression relative to U6.mi405: normalized to RPL13A. The procedure:
TaqMan Gene Expression Assay. QRT-PCR was carried out to quantify the expression of pri-mir-675, mir-675-5p and mi405 using TaqMan probes (ThermoFisher Scientific). Experiments were started by eliminating genomic DNA from the RNA preparations, and then cDNA was generated using the High-Capacity cDNA Reverse Transcription Kit (Applied Biosystems) following manufacturer's instructions. Within the same cDNA reaction, 1×RT random hexamer primers were used to generate the cDNA for RPL13A, used as a reference gene, and for pri-mir-675. To generate the cDNA for mir-675, the RT mir-675 reverse primer provided by ThermoFisher Scientific was used. For mi405, the mi405 qPCR protocol was done as it was previously described [Wallace et al., Mol. Ther. Methods Clin. Dev. 8: 121-30 (2018)]. To quantify mir-675 and mi405 levels, RNA was extracted using the total RNA protocol for the mirVana miRNA Isolation Kit (Ambion) from HEK293 cells. cDNA was generated using the High-Capacity cDNA Reverse Transcription Kit (Applied Biosystems) using a mix of random hexamer primers and specific reverse primer for pri-mir-675 and mir-675-5p. For mi405, 200 nM of the stem-loop forming primer (5′-[…]-3′) (SEQ ID NO: 144) was also used for the RT step. A custom TaqMan assay (Applied Biosystems) including 1.5 μM of Forward primer (5′-[…]-3′) (SEQ ID NO: 145), 0.7 μM of Reverse primer (5′-GTGCAGGGTCCGAGGT-3′) (SEQ ID NO: 146), and 0.2 μM of mi405 probe (5′-6FAM-ATACGACGTCCAGGAT-3′) (SEQ ID NO: 147) was then run using the CFX Connect Real Time system apparatus (Bio-Rad). RPL13A (Mm02526700_g1; Applied Biosystems) served as the reference gene. The TaqMan gene expression assay consisted of using the TaqMan Gene Expression Master mix and TaqMan probes purchased from ThermoFisher Scientific. 1× of probe was mixed with 1× of the TaqMan Gene Expression Master mix (ThermoFisher Scientific), and with 20 ng of cDNA. The mir-675- and mi405-specific primers and probes were designed to quantify only the mir-675-5p and mi405 mature sequence (see TaqMan Gene Expression Master mix protocol).
Apart from the effect on the inhibition efficiency of mi405, the effect of the flanking sequences on the expression of the miRNA also was tested. Therefore, the expression of the processed mature mi405 sequences was quantified using the standard and advanced TaqMan cDNA synthesis reaction. In the former reaction, a reverse primer detects the mature mi405 sequence following a stem-loop primer-based small RNA detection principle (ThermoFisher Scientific) (Jung et al., RNA (2013) 19: 1-10). The amplification and quantification steps were then performed using a standard TaqMan probe specific to mi405 that base pairs at the junction between the mi405 mature sequence and the reverse primer sequence (FIG. 6A). […] In the TaqMan advanced cDNA synthesis reaction, the mature sequence is extended through ligation of an adaptor sequence at the 5′ end and through the enzymatic addition of a polyA tail at the 3′ end of the mature mi405 sequence. The amplification and quantification steps were then performed using a TaqMan advanced probe specific to mi405 that normally base pairs with the 3′ end of the mature miRNA and with part of the adaptor sequence. Here, an additional TaqMan advanced probe (embedded probe) that only base pairs with the mature sequence of mi405 (FIG. 6B) was used. As a result, following TaqMan advanced cDNA synthesis reaction, droplet digital PCR (ddPCR) was performed to quantify mi405, mi405F, mi405B, mi405C, mi405G and mi405H expression levels. For this, TaqMan advanced embedded and overlapped mi405 probes (FIG. 6B) were used.
(Quantitative PCR measures a nucleic acid by following its amplification.)

Series [1] deals with DUX4 ORF (RenLuc-DUX4 ORF). Briefly: Dual-luciferase assay, RenLuc-DUX4 ORF reporter co-transfected with miDUX4 plasmids in HEK293 cells. As to conditions: DUX4:mi405 molar ratio 2 to 1; HEK293; 24 h; normalized to U6.miGFP. Type of series: cell-based, human. Here is the method: Dual Luciferase Assay. (See also FIGS. 1A, 3A-B, 4A-B, 5B, and 16B-C.) This assay was performed as previously described by Wallace et al. (Mol. Ther. Methods Clin. Dev. 8: 121-30 (2018)) and following the dual-luciferase reporter assay system (Promega) protocol with some modifications. All plasmid constructs had the psiCheck2 dual luciferase reporter plasmid (Promega) as backbone that contains separate Renilla and Firefly luciferase genes, where the former contains the various target sequences used in the experiments of the disclosure, and the latter serves as a transfection normalizer (control). All DUX4 and control sequences were cloned downstream of the Renilla luciferase stop codon, serving as a 3′UTR. HEK293 cells were pre-plated 24h before transfection. Cells were then co-transfected with the luciferase DUX4 reporter and individual microRNA expression plasmids in an increasing luciferase DUX4 reporter:miRNA molar ratio using Lipofectamine 2000 (Invitrogen). Luciferase activity was measured 24h or 48h after transfection. DUX4 gene silencing was determined as previously described [Wallace et al., Mol. Ther. Methods Clin. Dev. 8: 121-30 (2018)]. Triplicate data were averaged per experiment, and individual experiments were performed 3 times. Results were reported as the average ratio of Renilla to Firefly luciferase activity±SEM for all combined experiments.
Accordingly, two new mi405 constructs, i.e., mi405F and mi405NF, were designed. […] To assess the inhibition efficiency of the three mi405 constructs, a dual-luciferase assay and western blot analysis, similar to what was described for mir-675, were carried out. In the dual-luciferase assay, U6.mi405, U6.mi405F, or U6.mi405NF was co-transfected into HEK293 cells along with the RenLuc-DUX4 ORF (a construct expressing the open reading frame of DUX4 as a 3′UTR sequence of Renilla Luciferase). 24 h after transfection, U6.mi405, U6.mi405F, and U6.mi405NF reduced the relative Renilla luciferase activity by 85±1%, 89±1%, and 66±1% (P<0.0001, ANOVA, N=3), respectively, when tested against the RenLuc-DUX4 ORF construct.

B1: U6.mi405B: mi405 construct with altered flanking sequences (nucleic acid)
DNA: ACGCCGCCATCTCTAGGCCCGCGCCGGCCCCCTCGCACAGACTTGTGGGAGAAGCTCGGCTACTCCCCTGCCCCGGTTAATTTGCATATAATATTTCCTAGTAACTATAGAGGCTTAATGTGCGATAAAAGACAGATAATCTGTTCTTTTTAATACTAGCTACATTTTACATGATAGGCTTGGATTTCTATAAGAGATACAAATACTAAATTATTATTTTAAAAAACAGCACAAAAGGAAACTCACCCTAACTGTAAAGTAATTGTGTGTTTTGAGACTATAAATATCCCTTGGAGAAAAGCCTTGTTTGACCGTTTAAACTCGAGTGAGCGATCCAGGATTCAGATCTGGTTTCTGTAAAGCCACAGATGGGAAACCAGATCTGAATCCTGGACTGCCTACTAGATTTTTT
Consider B1, for which the “reduction of mature mi405 sequence expression relative to U6.mi405” value with mi405 mature sequence came to 71±9%. In series [1], the “reduction of Renilla luciferase activity” value is 25±3%.

B2: U6.mi405D: mi405 construct with altered flanking sequences (nucleic acid)
DNA: ACGCCGCCATCTCTAGGCCCGCGCCGGCCCCCTCGCACAGACTTGTGGGAGAAGCTCGGCTACTCCCCTGCCCCGGTTAATTTGCATATAATATTTCCTAGTAACTATAGAGGCTTAATGTGCGATAAAAGACAGATAATCTGTTCTTTTTAATACTAGCTACATTTTACATGATAGGCTTGGATTTCTATAAGAGATACAAATACTAAATTATTATTTTAAAAAACAGCACAAAAGGAAACTCACCCTAACTGTAAAGTAATTGTGTGTTTTGAGACTATAAATATCCCTTGGAGAAAAGCCTTGTTTGACTCGAGTGAGCGATCCAGGATTCAGATCTGGTTTCTGTAAAGCCACAGATGGGAAACCAGATCTGAATCCTGGACTGCCTACTAGAGCGGCCGCCACTTTTTT
As to B2, in the series with mi405 mature sequence, the “levels of mature mi405 sequence compared to U6.mi405” value is on record as “greater or higher with the difference not being statistically significant”. Moreover, in series [1], the “reduction of Renilla luciferase activity” value is 71±1%.

B3: U6.mi405A: mi405 construct with altered flanking sequences (nucleic acid)
DNA: ACGCCGCCATCTCTAGGCCCGCGCCGGCCCCCTCGCACAGACTTGTGGGAGAAGCTCGGCTACTCCCCTGCCCCGGTTAATTTGCATATAATATTTCCTAGTAACTATAGAGGCTTAATGTGCGATAAAAGACAGATAATCTGTTCTTTTTAATACTAGCTACATTTTACATGATAGGCTTGGATTTCTATAAGAGATACAAATACTAAATTATTATTTTAAAAAACAGCACAAAAGGAAACTCACCCTAACTGTAAAGTAATTGTGTGTTTTGAGACTATAAATATCCCTTGGAGAAAAGCCTTGTTTGACCGTTTAAACTCGAGTGAGCGATCCAGGATTCAGATCTGGTTTCTGTAAAGCCACAGATGGGAAACCAGATCTGAATCCTGGACTGCCTACTAGAGCGGCCGCCACTTTTTT
In the case of B3, the “levels of mature mi405 sequence compared to U6.mi405” value in the series on mi405 mature sequence is recorded as “greater or higher with the difference not being statistically significant”. In addition, the “reduction of Renilla luciferase activity” value in series [1] amounted to 72±1%.

B4: U6.mi405C: mi405 construct with altered flanking sequences (nucleic acid)
DNA: ACGCCGCCATCTCTAGGCCCGCGCCGGCCCCCTCGCACAGACTTGTGGGAGAAGCTCGGCTACTCCCCTGCCCCGGTTAATTTGCATATAATATTTCCTAGTAACTATAGAGGCTTAATGTGCGATAAAAGACAGATAATCTGTTCTTTTTAATACTAGCTACATTTTACATGATAGGCTTGGATTTCTATAAGAGATACAAATACTAAATTATTATTTTAAAAAACAGCACAAAAGGAAACTCACCCTAACTGTAAAGTAATTGTGTGTTTTGAGACTATAAATATCCCTTGGAGAAAAGCCTTGTTTGCTCGAGTGAGCGATCCAGGATTCAGATCTGGTTTCTGTAAAGCCACAGATGGGAAACCAGATCTGAATCCTGGACTGCCTACTAGAGCGGCCGCCACTTTTTT
Regarding B4, the “reduction of mature mi405 sequence expression relative to U6.mi405” value in the series on mi405 mature sequence came to 63±27%. Moreover, in series [1], the “reduction of Renilla luciferase activity” value was 64±1%.
